# Measurements: US9175305B2, “Mutant hydroxyphenylpyruvate dioxygenase polypeptides and methods of use” (Syngenta Participations AG, priority 2009, dated 2015)
# Substitutions are numbered along the chain they refer to. Numbers in names are those of the source.
# B1: M325L: M325L mutant of HPPD SEQ ID NO:14 (protein)
# chain: MPPTPATATGAAAAAVTPEHAARSFPRVVRVNPRSDRFPVLSFHHVELWCADAASAAGRFSFALGAPLAARSDLSTGNSAHASLLLRSGALAFLFTAPYAPPPQEAATAATASIPSFSADAARTFAAAHGLAVRSVGVRVADAAEAFRVSVAGGARPAFAPADLGHGFGLAEVELYGDVVLRFVSYPDETDLPFLPGFERVSSPGAVDYGLTRFDHVVGNVPEMAPVIDYMKGFLGFHEFAEFTAEDVGTTESGLNSVVLANNSEAVLLPLNEPVHGTKRRSQIQTYLEYHGGPGVQHIALASNDVLRTLREMRARTPMGGFEFLAPPQAKYYEGVRRIAGDVLSEEQIKECQELGVLVDRDDQGVLLQIFTKPVGDRPTFFLEMIQRIGCMEKDEVGQEYQKGGCGGFGKGNFSELFKSIEDYEKSLEVKQSVVAQKS
# modifications: mutant HPPD polypeptide
# B2: L358M: L358M mutant of HPPD SEQ ID NO:14 (apparently the change of SEQ ID NO:24) (protein)
# chain: B1 chain with L325M, L358M
# modifications: mutant HPPD polypeptide
# B3: A326R: A326R mutant of HPPD SEQ ID NO:14 (protein)
# chain: B1 chain with L325M, A326R
# modifications: mutant HPPD polypeptide
# B4: K411T: K411T mutant of HPPD SEQ ID NO:14 (protein)
# chain: B1 chain with L325M, K411T
# modifications: mutant HPPD polypeptide
# B5: S415K: S415K mutant of SEQ ID NO:14 (protein)
# chain: B1 chain with L325M, S415K
# modifications: mutant HPPD polypeptide
# B6: A326S: A326S mutant of SEQ ID NO:14 (protein)
# chain: B1 chain with L325M, A326S
# modifications: mutant HPPD polypeptide
# B7: L269F: L269F mutant of SEQ ID NO:14 (protein)
# chain: B1 chain with L269F, L325M
# modifications: mutant HPPD polypeptide
# B8: L269M: L269M mutant of SEQ ID NO:14 (protein)
# chain: B1 chain with L269M, L325M
# modifications: mutant HPPD polypeptide
# B9: S420A: S420A mutant of SEQ ID NO:14 (protein)
# chain: B1 chain with L325M, S420A
# modifications: mutant HPPD polypeptide
# B10: I421L: I421L mutant of SEQ ID NO:14 (protein)
# chain: B1 chain with L325M, I421L
# modifications: mutant HPPD polypeptide
# B11: S415Q: S415Q mutant of SEQ ID NO:14 (protein)
# chain: B1 chain with L325M, S415Q
# modifications: mutant HPPD polypeptide
# Assay: Km and kcat of expressed HPPDs (HPLC/UV quantitation of homogentisate)
# Format: biochemical, Avena sativa
# Details: for V217I, L271I, L271V, V258M, A326R estimated from initial rates in cell extracts, pH 7.0, 25° C., 120 μM HPP
# Method: The assay solution was transferred to Chromacol 03-CVG HPLC vials, sealed and the amount of homogentisate formed in a 40 μl aliquot determined by injection onto a reverse phase Aqua C18 5μ 75×4.6 mm HPLC column running 5.5% acetonitrile 0.1% TFA (Buffer A) at 1.5 ml/min. The column was eluted at 1.5 ml/minute using a 2 minute wash in buffer A, followed by a 2 minute wash in a 30/70 mixture of buffer A and 100% Acetonitrile, and a further 3.5 minute wash in buffer A. The elution of homogentisate was monitored by UV at 292 nm and the amount formed in each reaction quantified by comparison with a standard calibration curve.
# Km and Vmax values were determined (for example FIG. 1) using a non linear least squares fit using Grafit 4™ software (Erithacus Software, Middlesex, UK). Kcat values were determined by dividing the maximum rate, Vmax expressed in nmol/second by the number of nmoles of HPPD enzyme (based on the concentration determined by active-site titration).
# Experiments were carried out as described for Table 4. ‘Sulc’ denotes sulcotrione and ‘nd’ means ‘no data’. For V217I, L271I, L271V, V258M and A326R, the relative values of kcat were estimated from comparisons of the initial rates in cell extracts of similarly prepared and expressed HPPDs in conventional enzyme activity assays at pH 7.0, 25° C. and at a substrate concentration of 120 μM HPP.
row,Molecule,Rate: kcat relative to non-mutated HPPD SEQ ID NO:14
1,B1,1.2
2,B2,0.7
3,B3,1.2
4,B4,1

# Assay: catalytic activity and herbicide resistance of mutants of SEQ ID NO:14 in extracts
# Format: biochemical, Avena sativa
# Details: not given
# Excerpt: These further mutations can all be optionally combined with the resistance conferring mutations to produce catalytically active variants of HPPD herbicide resistant enzymes of the current invention.
row,Molecule,"catalytic activity and resistance to sulcotrione relative to control, unmutated SEQ ID NO:14"
1,B5,neutral mutations
2,B6,neutral mutations
3,B7,neutral mutations
4,B8,neutral mutations
5,B9,neutral mutations
6,B10,neutral mutations
7,B11,neutral mutations
